From the DeepSol protein solubility set

Test: soluble on expression in E. coli; label from the status in PepcDB or PDB records

Soluble on expression in E. coli, not soluble:
MGSDKIHHHHHHMQLSHSLRLMGTTIDIQINSKNAQKQIREVIELLELYKNRFSANDFNSELMAINNNAGIKPIQVHPDLFELITIGKEHSLARPSNLNIAIGPLVQTWRIGFSDAKLPSPSEISEAMILSDPTHILLDSNKQSVFLNQIGMKIDLGALAKGYIADKIMTYLKNEMIDSAIINLGGNVLVHGDNPNRSEGYWVIGIQHPKKKRGKNIGTVKIKNQSVVTSGTYERRLIIDDKEYHHIFDRQTGYPIQTEMASISIVSKQSVDCEIWTTRLFGLSIKEALDILNAVSYIEGIIITKDDRIYLSDGLKHHFQLFYH, MGSDKIHHHHHHMQMENSVTTRSRSPDAVRDSAVDRNAYQAKIDPHALKFQIFQEVLTIKREFKCCGGGCCGCLACIGCCQQECIIETPSMGVLGIIRQRCGCMSSNYDIMDGDGNVIFQIDGPCCCMLCGCQDKEFPIKTANNGTVVGAITKKWGGCFREAFTDADTFAVNFPGDLDVKLKGVLIGATFLIDFMEFEQQSQNRNNGV, MGSDKIHHHHHHMQNLSPTQREILLALTDLYNRQKRMIKSKEVADIIGKDEGTVRNIILSLKVLGLVESKPGPNGGYMPTLKAYEIINNPTLTPILDKLNLYKGMIETDIKVENIEIIDITNPSANRVLLKVEGDLRKLKIGDAVRLGPTPYSRLVIEGLILHLDENSKEIVVDVKRMISIPKEKVKNLISKKLIALKPETSLREASMIFYKEAIRGAPVINQDEKVVGILTTADIIKAFFEGNYTAKVSDYMKTNVISINENEDLLDAIRKMIIYNVGRLLVLDSNNKAVGIVTRTDILRSIAGLEGLWTT, MGSDKIHHHHHHMQPELSEFLRQHRITEVEAIIPDMAGIARGKIIPRNKFESGESMRLPQAVMVQTVTGDYPEDGTLTGVTDPDMVCVPDPSTICLVPWAVDPTAQVIHDCVHFDGSPVEISPRYVLRRVLDLYKAKGWQPVVAPELEFYLVDMNADPDLPLRPPIGRTGRAETGRQSYSIEAVNEFDPLFEDIYEYCEMQGLDIETLIHEVGAAQMEINFVHGDALSLADQVFLFKRTVREAALRHNMYATFMAKPMEGEPGSAMHIHQSLADVHTGRNLFAEEGGVVSPMFHSYLAGLQKYTPALMPIFAPYINSYRRLSRFMAAPINVQWGYDNRTVGFRIPQSTPVARRIENRIPGVDCNPYLAFAATLAAGYLGLTQQLAPTEPIASDGYDLPYQLPRNLEEGISLMAACTPLAGILGDKFVKAYLALKETEYEAFFRVISSWERRHLLLHV, MGSDKIHHHHHHMQSIVQTNFTGIDGLIIRNEPRPALTDNGVLIAMETLPVVPSDWHKETDPNATAEQALQLPRVIGIGGVGTVIEVGHNRDQKLLHQRVLVMHPKGSYQEFILNTNSDWLFPLPINVSNAEAATLTAGPGVALALTEFIKQNPSDHLVITGANSVIGLILCQLLGSTYPGLTPIVSPDSQAYFNQSLPGYPVYSIEHLQLFHGRTLIIDIAGSEPLLQQLIAAVPRASIASIALQTSNLNVPFTFVHEDFNHQIYCHLIKTVASHKLWLPIGRIFSFAETKKAQHYAKDHHSRGRVLVNLN, MGSDKIHHHHHHMQSNRLTESSAEIHDMSLRIYQTPVQHLPEDLYVPPQAFAIWLEQFAGPLDFLLYLVKKNNVDLTRMPILPITEQYLAYISKLDTNHFELAGDYLLMASTLIAIKTELLLPMPEMPTDERDPKAELIERLEEYTQVKAASQRLDNLIRLERDVFLAMVSMPNQDIMNSELPSYSPTLLIDSLFKMQLQPDYQMHSIKVDAVPLADRIASISRQLSTDGARSFHELLDKAQGKIGVVVSFVAVLELIKRQLIGVVANNVDSGVSTATNADGSLSTHSDLLEKLTLEWLA, MGSDKIHHHHHHMQSSSTLFPVALLSAERRGDLSEDVYRIKAGNGPDPSVELAITRLGLADQAQAQGVPVILLHGSFSNRRFWYSPKGVGLGAYLARAGFDVWIPEMRGHGLSPRNHDWKHNSVAAYARDDLPLINAFVREQSGQAPHWVGHSLGGTTLVAALGGGFLAAEQLASVALFGTQISRVYWPLKVPPLAWGAKLVLKRWGQISGPRFKRGPEDEPIGLALESMRWHGLFGRFGDKQNDWWAGLAEVDVPLLAVAGAGDFQDPVWACRKLFEQLGGERKQFLRLGREEGFEAFGHVDMLVSKAAQVQVWPLVERWLHNPLLPVHASTVVAEPVPAS, MGSDKIHHHHHHMQVIKQKLTATCAQLTGYLHQPDTNAHQTNLPAIIIVPGGSYTHIPVAQAESLAMAFAGHGYQAFYLEYTLLTDQQPLGLAPVLDLGRAVNLLRQHAAEWHIDPQQITPAGFSVGGHIVALYNDYWATRVATELNVTPAMLKPNNVVLGYPVISPLLGFPKDDATLATWTPTPNELAADQHVNSDNQPTFIWTTADDPIVPATNTLAYATALATAKIPYELHVFKHGPHGLALANAQTAWKPDANQPHVAHWLTLALEWLADNR, MGSDKIHHHHHHMQWFENPLFSERVEFLESSQYWPAERHAVYQLRSLRRLVHHVAAHVPFYRDFMAASGIRPEDILSIEDIKRFPIIDKKVIQAQPEAFLADGSDRATLLHRTTGGSTGTPLTVWFDGDLLARDKANTEHYMRAIGLDIFTWKSIRLYGDKIDPEITDTGRYWKLVDGRRLVMSCYHITHETAPAYVAELNRFRPRYIHTRPSSILPLAKYILQDGLALDPIRTIVSDGEYLTDGQRAVIERAFQGRLYNIYGHTEACVVGHPCHHSDGLHLMPQVGVTELLDEQGRDVTEPGGRGELVVTGFNNPVMPLIRYRTGDVAYLGEGGCRCGRHYQMLKGIEGRLQDYVIDAAGNPTPLAPAVFNYNDMDWKGIKEFKVIQDTPGELTILIVLEAELAADPAGSKAVLEQRIGAILAGFRISITLVDDIPKTKIGKHRYLDQRLDVKELVSFR, MGSDKIHHHHHHMRADIIKVNHLLEIEMENNIGKEYLPSRLEEISDEHWHISMPMRKGMYITMRVGQKIRIVLRYRNTMFAATTVIAARRRGHIPVLIVSKPKDLIAINQKRTYVRISVAIPVAFRLLLADGEKGELLQGVTGDISAGGMLLLSPQDMEKDQKIEVEIKLPDSDSIFCQAHVVRVLGKASEEGSNNKYAIEYDDINEGQRDRIFRFIFDKQREWLRKGVTE, MGSDKIHHHHHHMRALATWQDKCIDSQLLVASLVGLFKQRDLDCDKLLRGTGIFITDIRKPDHLISPKQLARLLDNALAQWPNGDLSFLLGQLWFPSQSGVLTSGMFCARDVKELIYFWHKYHWLTQPWLQTWRWQGEHEWHFLLSLDLGMHRHKQFFIELSLSSFMACFKQLLGQAWRGSICFPYPAPDNLAHYYKYFGMDLRFDAPLCRISMAKNLLRQPSLFANQSLLYSQPENVDTHCAEDAQLPSASQSCIHGEAASPALDIQPLQLPLRPQLNMAKAARQALFAQEFRLGLAAGIRLKLMRRTLSLPEMAQILEISPATLKRRLGEMGLNYGQLADESRLIRALYFLAEPEQDAHSIASSLSFSDASNFRRSFKRWTGQLPGYFRYWLA, MGSDKIHHHHHHMRCPWRKTRRHSDNGWYGPRNQIRPDDHRLHRKVRKSRGDSRRAGNGSPRARCFEGAQRRGKSDGLSECGRMKNLLEMVELVRGKRMKIAVGAAEDEEVLKAVARAKEEEIVDPVLFGKRKDIETLVERMNLELEAEIVHVEDPFEAVRKAVESVSRNETQILMKGKIKTSDLFSVFLKKEYGLRTGRTLSAVSVHEVPGYHKILIISDGGLVISPNLQQRMDIVENSILVARALGIEKPKIALLGTGDLKSPLTLEIAALSKIFQQRNDCIVDGPLTLDLAISEELASKAGNSPVAGDADILIVPSIETGNILSKSLVYMARGRAAIVVVGGRVPVVLTSRADDEETRFLSIALSVLVAQKKG, MGSDKIHHHHHHMRDHVEIGIGREARRTYSLDDISVVSSRRTRSSKDVDTTWHIDAYKFDLPFMNHPSDALASPEFVIEMGKQGGLGVINAEGLWGRHADLDEAIAKVIAAYEEGDQAAATRTLQELHAAPLDTELLSERIAQVRDSGEIVAVRVSPQNVREIAPIVIKAGADLLVIQGTLISAEHVNTGGEALNLKEFIGSLDVPVIAGGVNDYTTALHMMRTGAVGIIVGGGENTNSLALGMEVSMATAIADVAAARRDYLDETGGRYVHIIADGSIENSGDVVKAIACGADAVVLGSPLARAEEAAGKGYFWPAVAAHPRFPRGVVTESVDLDEAAPSLEQILHGPSTMPWGVENFEGGLKRALAKCGYTDLKSFQKVSLHVN, MGSDKIHHHHHHMREIAASRISAVLAELIVKISTELGEDILTALHKAYEAEESPAGRDILQSLLENARIAKEKKIPLCQDTGTAIVFAEVGQEVHVTGNFTDAINLGVRQGYEQAYLRKSIVSHPFSKRINTNDNTPAVIHTEIVPGDRLKISFMAKGSGAENMSRLFMLKPGVGREGVIEAVLETVEKAGGSPCPPIIIGLGVGATAEKAMFMAKKALLRPLGITHTDPEVAALETEVLKQVNKLGIGPLGLGGRVTALGVMAETAPTHIASLPVAVNLQCHSARHGEAVL, MGSDKIHHHHHHMREIEHAKYSRLKNAIYKDASVALLTQHGKEKVVTPILASAIGCEVTLVTGFDTDQLGTFTRDIPRAGTQIEAARKKARIGMELAHLPLGLASEGSFGPDPFTGLFSLNVEMVVWIDDTLGIEVVGVASGRTNFSHLLAANWEQAEAFARAIDFPEHGIVVRPRHEDDSRVRKGIADWESLREAFFWACGEADNGCVFLETDVRAHMNPMRMEIIASATRDLADKLATPCPVCNTPGFQIVERVPGLPCEGCGAPTRDTWADIHRCGRCGHQVALERLEKAAPAGHCDWCNP, MGSDKIHHHHHHMRELPPLDLYETEAAERAGMAAGEPSAGDVELPAEPLLAGEARGQPFTRQSVAPLATIDLSTVPADDVTPRRWIVPDLIPDRNVTDISGDGGLGKSLLALQLGIAMAAGRDWLGTMPEPGGFLYVSCEDEPNEVLRRRNAVLAGMGLTPGDIRNLYLADLTDAEGTELAAPGKAALELTALHHRFEVTIRQLRPKCAVLDTRADVFGGNELSRVQVRMFVRSLRRLCIAHDMAIILLSHPSVSGMASGSGQSGSTGWGNSVRSRLYLTAPKSEGDTDLDPDIRILSSKKANYGPHGAEIVLRWDRGMFRPDRDALASLDRDQQDREIEVTFLQLLSKREKEGRRANASSGPNYAPKVLAEMNGTISRAKFRGAMERLFAKEEIASVSYEANGKGSTQLVLTDKGMSRLRIPF, MGSDKIHHHHHHMRHLKAFYVFHVTAESSNYSKAAEKLHITHGAVSKQIKLLESHLSQMLFYKQGRGMCLTQEGELLKQYTDIAFNALDNGIKKLTRESNKHLEVSCEPTLTMRWLMPRLASFFRLTGIDVRLSTAGGPVDLNETGLSLAIRRDDFDISPEYTAHNLVNEWVGPVFSPEYWRKSQNNLGDIVLLHSETRPSAWSDWSSRSKHTFYTNKSKSFEHFYFCLQAAVDGLGAAIGSYPLIVDDLKSGRLVAPFGFTQSGHKYVLLSHTERLGSNELEFLTWLEKTMSLCQPETP, MGSDKIHHHHHHMRIALVTNTFLPLTGGGEFVVHHLGNQWSMQGHDVCVFNSLTAEVAHPEALYKVMRYKIMRGATRFGYHRFPWVNVSTRSLNRQINYFNPDFVSGHFSIPVALYLDNLKPKRIWSITSHGSDIVRNDVNSQRDQYDIDNKLANSLNNASSVIAISNSAKANLLDIGVKPSLIRVIPNGVELNRFKTKANTNIREMFNIPEHKKLVLTVGRNSLVKNLGLGINAVAEIAKSRSDIHYLIVGGGTSQLNETIINRGLRDTVTTCENLAGESLVAAYQQSDIFLSTSNYECCPLVILEAMASGLPIVATQVAGNVDLIDNEVNGLLVGRNNHMHIVNAITMLIADKRLCHSISTTNYDKVSDYSWDTVSRSYLELLQ
